Data as given in the nanobody polyreactivity screen of Harvey et al. (2022).

Experiment: yeast display, Sf9 membrane polyspecificity reagent, FACS + sequencing; frameworks hold sequencing errors
Outline: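 In a synthetic yeast display library (Saccharomyces cerevisiae BJ5465), nanobody expression was induced with galactose for 36–48 hours. FACS gates were set low and high (top ~1%) using anti-HA fluorescence for expression and streptavidin fluorescence for binding of the Sf9 membrane reagent. Each polyreactivity label is drawn from the gate of origin.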

For “QVQLVESGGGLVQAGGSLRLSCAASGSTFDTNTMGWYIQAPGKERELVAAITSSGTSTSYADSVKGRFTISRDNAKNTVYLQMNSLKPEDTAVYYCAALRPGGGDYSDYDYWGQGTQVSVSS”, the “polyreactivity (PSR sort gate)” value was “low polyreactivity”.
For “QDQLVESCGGLVQAGGSLRLSCASSGIIFVNYAMGWYRQAPGKERELVAAITTSGGSTYYADSVKGRFTISRDNAKNTVYLQMNCLKPEDTAVYYCAKISSLFKHVVRYDYWGQGTQVTVSS”, the “polyreactivity (PSR sort gate)” value was “low polyreactivity”.
With “QVQLVESGGGLVQAGGSLRLSCAASGRIVARNAMRWYSQAPGKERELVGAITYSGGSTYYADSVKGRFTISRDNAKNTVYLPMISLKPEDTAVYYCAAETSKRGRRYYYWGQGTQVTVSS” the “polyreactivity (PSR sort gate)” value was “high polyreactivity”.
With “QGQLVESGGGLVQAGGRLRLSCAASGYNFGSYAMGWYRQAPGKERELVAAISGGGSTNYADSVKGRFTISRDNAKNTVYLQMHSLKPEDTAVYYCAAYPYLYPLRFEEYDHWGQGTQVTVSS” the “polyreactivity (PSR sort gate)” value was “low polyreactivity”.
With “QVQLVESGGGLVQAGGSLRVSCAASGSIFYSNAMGWYRQAPGKERELVAAITRRGGSTYYADSVKGRFTISRDIATNPVYLQMNSLIPEDTAVYYCAARSKTSNLFNYWGQGTQVTVSS” the “polyreactivity (PSR sort gate)” value was “high polyreactivity”.
With “QVQLVESGVGLVQAGGSLRLSCADSGFTFRRYVMGWYRQAPGKERELVAGISASGDSTYYADSVKGRFTISRDYAKNTFYLQMNSLKPEDTAVYYCATVARYRYLESYYWGQGTQVTVSS” the “polyreactivity (PSR sort gate)” value was “high polyreactivity”.
For “QVQLVESGGGLVQAGRSLRVRCAASGSTFGLYAKGWYRQAPGKERELVADITWSGGTTYYADSVMGRFTFSRDNAKNTVYLEINSLKPEDTAVYYCAARYPWVYDDFDYWGQGTQVNVSS”, the “polyreactivity (PSR sort gate)” value was “low polyreactivity”.
In the case of “QVQLVESGGGLVQAGGSLRLSCAASGSIFSYYAMGWYRQAPGKERELVAAIRWRTGNTYYADSVKGRFTISRDNAMNTVYLQMNSLKPEDTAVYYCNAVYRYNYGYREYEYWGQGTQVTVSS”, the “polyreactivity (PSR sort gate)” value is reported as “high polyreactivity”.
With “QVQLVESGRGLVQAGGSLRLSCAASGRIFKTYAMGWYRQAPGKERELVAAITTSGDSTYYADSVKGRFTISRDNAKNTVYLQMNSLKPEDTAVYYCAARPRVRSSYRYYYWGQGTQLTVSS” the “polyreactivity (PSR sort gate)” value was “high polyreactivity”.
With “QVQLVESGGGLVQAGGSLPLSCAASGRTYRYYAMGWYRQAPGKERELVAAITRRSGNTNYADSVKGRFTISRDNAKNTVYLQINSLKPEDTALYYCAAVGAKGARYDYWGQGTQVTVSS” the “polyreactivity (PSR sort gate)” value was “high polyreactivity”.
In the case of “QVQLVESGGGLVQAGGSLRLSCAASGINFSPYAMGWYRQAPGKERELVAAISYSGGSTYYADSVKGRFTISRDNAKNTVYLQMNSLKPEDTAVYYCAVVYSYYLAVLGYWDYDYWGQGTQVTVSS”, the “polyreactivity (PSR sort gate)” value is reported as “low polyreactivity”.
For “QVQLVESGGGLVQAGGSLRLSFAASGLIIFSYAMGWYRHAPGKEREIVASIRSSGGSTNYADSVKGRFTISRDNAKNTVYLQMYSLKPEDTAVYYCATRSKTSGRSYIPFNYWGQGTQVTVSS”, the “polyreactivity (PSR sort gate)” value was “high polyreactivity”.
For “KVQLVESGGGLVQAGGSIRLSCDASGRSFYYYAMGWYRQAPGKEREWVAAINTRGTSTYYADSVKGRFTISRDNAKNTVYLQMNSLKPEDTAVYYCAVDPYGDSWEDWFRNYYYGYDYWGQGTQGTVSS”, the “polyreactivity (PSR sort gate)” value was “low polyreactivity”.
In the case of “QFQLVDSGGGLVQAGGSLRLSCAASGRIFSTNAMGWYRLAPGKEWELDAAINWSTGSYVLRRSVKGRFTISRDNAKNTVYLQMNSLKTEDTAVYYCAARVTVVGDYYWGQGTQVTVSS”, the “polyreactivity (PSR sort gate)” value is reported as “high polyreactivity”.
With “QVQLVESGGGLVQAGGSLRLSCAASGFTIGHYAMGWYRQAPGKERELVAAISSGDRTYFADSVKGRFTISRDNAKNTFYLQMNSLKPEDTAVYYCNAVYYSWAQSARFDYWGQGTQVTVSS” the “polyreactivity (PSR sort gate)” value was “low polyreactivity”.
In the case of “QVQLVESGGGLVQAGGSLRLICAASGSILDGNTMGWYRQAPGKERELVAAITWDGTSTYFADSVKGRFTISRDNAKNTVYLQMNSLKPEDTAVYYCAATKGYSDPSTGYYAYIHYDYWGQGTQVTVSS”, the “polyreactivity (PSR sort gate)” value is reported as “low polyreactivity”.
With “QVQLVESGGGLVQAGGSLRLSCEASGSTFLRNAMGWYRQAPGKKGSWVATISYAGDSTYYADSVKGRFTLSRDNAKNTVYLQMNSLKPEDTAVYYCAASYSLTFWDKDDYWGQGTQVTVSS” the “polyreactivity (PSR sort gate)” value was “low polyreactivity”.
In the case of “QVQLVESGGGLVQAGGSLRLSCAASGSTFAFNAMGWYRQAPGKERELVAAISTSGGDTYYADSVKGRFTISRDNAKNTVYLQMNSLKPEDTAVYYCGGDYQVPGGSWMDYWGQGTQVTVSS”, the “polyreactivity (PSR sort gate)” value is reported as “high polyreactivity”.
For “QVQLVESGGGLVQAGGSLRLSCAASGIIFGRNAMGWYRQAPGKERELVAAIRWSGGSTYYADSVKGRFTISRDNAKNTVYLQMNSLKPEDTAVYYCAKRYSYWSGVKYGYWGQGTQVTVSS”, the “polyreactivity (PSR sort gate)” value was “high polyreactivity”.
In the case of “QVQLVESGGGLVQAGGSLRLSCAASGSIFSTNALGWYRQAPGKERELVAGITRSGGRTYYADSVKGRFTISRDTAKNTVYLQMNSLKPEDTAVYYCTAVRPHRYYSWGQGSQVTVSS”, the “polyreactivity (PSR sort gate)” value is reported as “high polyreactivity”.
With “QVQHVESGGGLVQAGGSLRLSCAASGRIFPYKAMGWYRQAPGKERELVAAISKSGVRTYYADSVKGRFTISRDNAKNTVYLQMNSLKPEDTAVYYCARGGYPGSAEYDYWGQGTQVTVSS” the “polyreactivity (PSR sort gate)” value was “high polyreactivity”.
For “QVQLVESGGGLVQAGGSHRLSCAASGRTFPGNAMGWYRQAPGKERELVAAISWSGTRTYYADSVKGRFTISRDNAKNTVYLQMNSLKPEDTAVYYCNVVVKGAWDYYPYDYWGQGTQVTVSS”, the “polyreactivity (PSR sort gate)” value was “high polyreactivity”.
In the case of “QVQLVESGGGLVQAGGSLRLSCAASGRIFQYSAMGWYRQAPGKEREFVASITFRGGRTNYADSVKGRFTISRDNAKNTVYLQMNSLKPEDTAVYYCAVSLRRGGSGYAYDYWGQGTQVTVSS”, the “polyreactivity (PSR sort gate)” value is reported as “high polyreactivity”.
For “QVQLVESGGGLVQAGGSLRLSCAASGITFSGNTMGWYRQAPGKERELVAAISSGGSTYYADSVKGRFTISRDNAKNTVLLQMNSLKPEDTAVYYCNADIYYAPYDYWGQGTQVTVSS”, the “polyreactivity (PSR sort gate)” value was “low polyreactivity”.
In the case of “QVQLVESGGGLVQAGGSLRLSCAASGRIFLGNAMGWYRQAPGKERELVAAIDASGGSTYYADSVKGRFTISRDNAKNTVYLQMNSLKPEDTAVYYCAADRGFLRSFAPGNMDYWGQGTQVTVSS”, the “polyreactivity (PSR sort gate)” value is reported as “low polyreactivity”.
In the case of “QVQLVESGVGLVQAGGSLRLSCAASGSIFYHYVMGWYRQAPGKERELVAGISWSGVSTYYADSVKGRFTISRDNAKNTVYLQMNSLKPEDTADYYCAAVYRQSRLHTFGYWGQGTQVTVSS”, the “polyreactivity (PSR sort gate)” value is reported as “high polyreactivity”.
In the case of “QVQLVESGGGLVQAGGSLRLSCAASGGTFPTNAMGWYRQATGKERELVAAITSSGVRTYYADSVKGRFTISRDNAKNTVYLQLNSLKPEDTAVYYCKAVTRYVRLTDDDYWGQGTQVTVSS”, the “polyreactivity (PSR sort gate)” value is reported as “high polyreactivity”.
In the case of “QVQLEESGGGLVQAGGSLRLSCAASGRTFGVYAMGWYRQAPGKERELVAGIRWRGGSTYYADSVKGRFTISRDNAKNTVYLQMNSLKPEDTAVYYCAADVYLVKYDYWGQGTQVTVSS”, the “polyreactivity (PSR sort gate)” value is reported as “low polyreactivity”.
For “QVQLVESGGGLVQAGGSLRLSCAASGRTFYRYTMGWYRQAPGKERELVAGISWRGGTTYYADSVKGRFTISRDNAKNTVYLQMNSLKPEDTAVYYCAAKAGYRYGSLAYYKYDYWGQGTQVTVSS”, the “polyreactivity (PSR sort gate)” value was “high polyreactivity”.
In the case of “QVQLVESVGGLVQAGGSLRLSCAASGLIFVRYAMGWYRQAPGKERELVATITWSGGTTYADSVKGRFTISRDNAKNTVYLQMNSLKPEDTAVYYCAVEWPAWTDSDYPVGGHAFGYWGQGTQVTVSS”, the “polyreactivity (PSR sort gate)” value is reported as “low polyreactivity”.
For “QVQLVESGGGLVQAGGSLRLSCAASGFTFDSYDMGGYRQAPGKERVLVAAITWSGGSTYYADSVKGRFTISRDYAKNTVYLQMNSLKPEDTAVYYGNADTGTYWVPWYHDGYDYWGQGTQVTVSS”, the “polyreactivity (PSR sort gate)” value was “low polyreactivity”.
In the case of “QVQLVESGGGLVQAGRSLRLSCAASGSTFDQYDMGWYRQAPGKERELVAAISQSGDRTYYADSVKARFTISRDYAKTTVYLQMNSLQPDDTAVYYCADDGVSQDYYYRYDYWGQCTQVTVSS”, the “polyreactivity (PSR sort gate)” value is reported as “low polyreactivity”.
In the case of “QVQLVESGGGLVQAGGSLRLSCAASGSIFSSYAMGWYRPAPWKESELVAAITYNGGSTFYADSVKGRFTISRDNAKNTVYLPMYCLKPVDTAVYYCAAEYVGYYVYTWLYDYWGQGTQVTVSS”, the “polyreactivity (PSR sort gate)” value is reported as “high polyreactivity”.
For “QVQLEESGGGLVQAGGSLRLSCAASGFTFSPNAMGWYRQAPGKVRELVAAIDWIGGSTYYADSVKWRFTISRDNAKNTVYLQMKSLNTEDTAVYLCTADWVYWHYLTYLVTFDYWGQGTQVTVSS”, the “polyreactivity (PSR sort gate)” value was “low polyreactivity”.
In the case of “QVQLVESGGGLVQAGGSLRLSCAASGRTFVRYAMGWYRQAPGKERELVAAISQSGGDTYYADSVKGRFTISRDNAKNTVYLQMNSLKPEDTPVYYCAARSDDVSRYGYWGQGTQVTVSS”, the “polyreactivity (PSR sort gate)” value is reported as “low polyreactivity”.
In the case of “QVQLVESGGGLVQAGGSLRLSCAASGRIIRPYAMGWYRQAPGKERDFVATIRFTTGRTYYADSVKGRFTISRDNAKNTVYLQMNSLKPDDTAVYYCAADFAFVNYAKISYTTHDYWGQGTQVTVSS”, the “polyreactivity (PSR sort gate)” value is reported as “high polyreactivity”.
With “QFQLVESGGGLVQAGGSLRLSCAASGRIFPQYAMGWSRQATGKERELVAGITSVGSTYYADSVKGRFTISRDNAKNTVYLQMNSLKPEDTAVYYCAAFYRGGDYWGQGTQVTVSS” the “polyreactivity (PSR sort gate)” value was “high polyreactivity”.
In the case of “QVQLVESGGGLVQAGGSLRLSCAASGSIFAPYAMGWYRQAPGKEREFVATITWGGGRTYYADSVKGRFTISRDNAKNTVYLQMNSLKPEDTAVYYCAAAIYYGSLGLFDYWGQGTQVTVSS”, the “polyreactivity (PSR sort gate)” value is reported as “high polyreactivity”.
For “QVQLVESGGGLVQAGGSLRLSFAASGSIFGFNAMGWYRPAPGKERELVAAISSGGITNYADSVKGRFTISRDNAKNTVYLQMNSLKAEDTAVYYCAARAVSEDYYEFDYWGQGTQVTVSS”, the “polyreactivity (PSR sort gate)” value was “low polyreactivity”.
For “QVQLVESGGGLVQAGGSLRLSCAASGSTFRSYTRGWYRQAPGKERELVAAIRKSGVRTYYADSVKGRFTISRDNAKNTVYLQMNSLKPEDTAVYYCNRPKWYDGDYWGQGTEVTVSS”, the “polyreactivity (PSR sort gate)” value was “high polyreactivity”.
With “QVQLVESGGGLVQAGGSLRLRCAASGTTFSDNAMGWYRQAAGKERELVAAITSGGSTYYADSVKGRFTISRDNAKNTVYLQMNSLKPEDTAVYYCAADYWGQGTQVTVSS” the “polyreactivity (PSR sort gate)” value was “low polyreactivity”.
In the case of “QVQLVESGGGLVQAGGSLRLSCAASGFTCGSYTMGWYRQAPGKERELVAVISRSGSSTYYADSVKGRFTISRDNAKNTVYLQMNSLKPEDTAVYYCNADYSRLGYDYWGQGTQVTVSS”, the “polyreactivity (PSR sort gate)” value is reported as “high polyreactivity”.
For “QVQLVESAGGLVQAGGSLRLSCAASGFIFRYNTMGWYRQAPGKERELVATINRSGGSTYYADSVKGRFTISRDNAKNTVYLQMNSLKPEDTAVYYCAAVSLQPYYIAGATWDGDYWGQGTQVTVSS”, the “polyreactivity (PSR sort gate)” value was “high polyreactivity”.
